Consider eleven molecules from publication PMC6611904, “The transcription factor OsSUF4 interacts with SDG725 in promoting H3K36me3 establishment”.

In one series the target is His-OsSUF4N (Oryza sativa, UniProt Q653D5 1-105). Put plainly: EMSA; ITC: 100 mM NaCl, 20 mM Tris-HCl pH 8.0, 25 C, 2 mM protein into 0.1 mM DNA; EMSA: LightShift kit binding buffer, 5 ug protein, 0.02 uM probe, poly(dI-dC), 25 C 30 min, 5% PAGE. The note with it: protein: recombinant; tags: His (pET32a). (In EMSA bound probe runs differently from free probe, usually more slowly.)

A further series addresses OsSUF4 ZF K36A (Oryza sativa, UniProt Q653D5 10-100, K36A). Briefly: ITC; ITC: 100 mM NaCl, 20 mM Tris-HCl pH 8.0, 25 C, 2 mM protein into 0.1 mM DNA; EMSA: LightShift kit binding buffer, 5 ug protein, 0.02 uM probe, poly(dI-dC), 25 C 30 min, 5% PAGE. The note with it: protein: recombinant; tags: pET28-SUMO; Ni column; blunt. (ITC needs no label: the signal is the heat of the interaction.)

In the next series the target is OsSUF4 ZF K33A (Oryza sativa, UniProt Q653D5 10-100, K33A). Described as above. The note with it: protein: recombinant; tags: pET28-SUMO; Ni column; blunt.
In series [1] the target is OsSUF4 zinc finger domain WT (Oryza sativa, UniProt Q653D5 10-100). The description is as above. The note with it: protein: recombinant; tags: pET28-SUMO; Ni column; blunt.
A further series has as its target OsSUF4 ZF K31A (Oryza sativa, UniProt Q653D5 10-100, K31A). Described as above. Conditions: protein: recombinant; tags: pET28-SUMO; Ni column; blunt.
The target of the next series is OsSUF4 ZF K43A (Oryza sativa, UniProt Q653D5 10-100, K43A). Described as above. Conditions: protein: recombinant; tags: pET28-SUMO; Ni column; blunt.
A further series has as its target OsSUF4 ZF K24A (Oryza sativa, UniProt Q653D5 10-100, K24A). Described as above. The note with it: protein: recombinant; tags: pET28-SUMO; Ni column; blunt.
The next series has as its target OsSUF4 ZF 4m (Oryza sativa, UniProt Q653D5 10-100, R18A;K33A;K36A;K43A). The description is as above. The note with it: protein: recombinant; tags: pET28-SUMO; Ni column; blunt.
In another series the target is OsSUF4 ZF R18A (Oryza sativa, UniProt Q653D5 10-100, R18A). The description is as above. Conditions: protein: recombinant; tags: pET28-SUMO; Ni column; blunt.
A further series addresses His-AtSUF4 (full length) (Arabidopsis thaliana, UniProt Q9C5G0 1-367). Briefly: EMSA; ITC: 100 mM NaCl, 20 mM Tris-HCl pH 8.0, 25 C, 2 mM protein into 0.1 mM DNA; EMSA: LightShift kit binding buffer, 5 ug protein, 0.02 uM probe, poly(dI-dC), 25 C 30 min, 5% PAGE. Conditions: protein: recombinant; tags: His (pET32a).

What is called Kd is a measure of binding affinity in units of concentration.

Chain of His-OsSUF4N (Q653D5 entry or part of it): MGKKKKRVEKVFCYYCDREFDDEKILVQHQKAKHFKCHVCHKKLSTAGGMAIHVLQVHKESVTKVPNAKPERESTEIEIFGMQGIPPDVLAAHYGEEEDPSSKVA
Chain of OsSUF4 ZF K24A (Q653D5 entry or part of it K24A | K24A K24A): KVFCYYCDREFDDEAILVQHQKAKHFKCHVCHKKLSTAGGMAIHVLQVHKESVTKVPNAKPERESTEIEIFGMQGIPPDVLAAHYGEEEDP
Chain of OsSUF4 ZF R18A (Q653D5 entry or part of it R18A | R18A R18A): as the sequence (Q653D5 entry or part of it K24A | K24A K24A) above, with R9A, A15K counted along it
Chain of OsSUF4 ZF K31A (Q653D5 entry or part of it K31A | K31A K31A): as the sequence (Q653D5 entry or part of it K24A | K24A K24A) above, with A15K, K22A counted along it
Chain of OsSUF4 zinc finger domain WT (Q653D5 entry or part of it): as the sequence (Q653D5 entry or part of it K24A | K24A K24A) above, with A15K counted along it
Chain of OsSUF4 ZF K36A (Q653D5 entry or part of it K36A | K36A K36A): as the sequence (Q653D5 entry or part of it K24A | K24A K24A) above, with A15K, K27A counted along it
Chain of OsSUF4 ZF K33A (Q653D5 entry or part of it K33A | K33A K33A): as the sequence (Q653D5 entry or part of it K24A | K24A K24A) above, with A15K, K24A counted along it
Chain of His-AtSUF4 (full length) (Q9C5G0 whole entry): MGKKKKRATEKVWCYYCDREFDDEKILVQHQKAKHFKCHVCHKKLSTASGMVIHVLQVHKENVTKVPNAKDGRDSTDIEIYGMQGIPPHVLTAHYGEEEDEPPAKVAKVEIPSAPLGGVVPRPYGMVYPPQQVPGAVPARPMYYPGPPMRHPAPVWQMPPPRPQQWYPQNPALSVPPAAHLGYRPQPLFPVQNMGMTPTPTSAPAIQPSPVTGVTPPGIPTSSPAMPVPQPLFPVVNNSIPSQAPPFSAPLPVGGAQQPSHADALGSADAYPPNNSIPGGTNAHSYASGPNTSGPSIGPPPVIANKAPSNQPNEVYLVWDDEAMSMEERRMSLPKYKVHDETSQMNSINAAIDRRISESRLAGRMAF
Chain of OsSUF4 ZF K43A (Q653D5 entry or part of it K43A | K43A K43A): as the sequence (Q653D5 entry or part of it K24A | K24A K24A) above, with A15K, K34A counted along it
Chain of OsSUF4 ZF 4m (Q653D5 entry or part of it R18A;K33A;K36A;K43A): as the sequence (Q653D5 entry or part of it K24A | K24A K24A) above, with R9A, A15K, K24A, K27A, K34A counted along it

B1: Hd3a-mu8 (dsDNA)
DNA 1: ACAGTTAACTAACGGCCTAAGGGGGGTATAAA
DNA 2: TTTATACCCCCCTTAGGCCGTTAGTTAACTGT
In the case of B1, in the series with His-OsSUF4N, the binding result is listed as “no binding”.

B2: Os05g48810 probe (dsDNA)
DNA 1: TATATTCAATGTCGGAAATCATTCCCGTAC
DNA 2: GTACGGGAATGATTTCCGACATTGAATATA
For the molecule B2, the binding result with His-OsSUF4N is given as “binds”.

B3: RFT1-WT (dsDNA)
DNA 1: AGTATGAGTTTTGGAATCGGAAATATACCGAAC
DNA 2: GTTCGGTATATTTCCGATTCCAAAACTCATACT
With B3, in the series with His-OsSUF4N, the binding result is on record as “binds”.

B4: ITC 16-bp DNA (dsDNA)
DNA 1: GGGTACGGAAATGGTA
DNA 2: TACCATTTCCGTACCC
For the molecule B4, the binding result in the series with OsSUF4 ZF K36A, in the series with OsSUF4 ZF K33A, with OsSUF4 ZF K31A, with OsSUF4 ZF K43A, in the series with OsSUF4 ZF K24A and in the series with OsSUF4 ZF 4m was “no binding” each time. Besides, in the series with OsSUF4 ZF R18A, the binding result is reported as “no binding”. Moreover, the Kd in series [1] was 51.3 ± 3.68 µM.

B5: Os12g01760 probe (dsDNA)
DNA 1: ATCATTTTTTCGGAAATATACAAATGCTGA
DNA 2: TCAGCATTTGTATATTTCCGAAAAAATGAT
For B5, the binding result with His-OsSUF4N is on record as “binds”.

B6: Os02g08490 probe (dsDNA)
DNA 1: AGACCGTCGATTCGGAAATAAACGGGCCGG
DNA 2: CCGGCCCGTTTATTTCCGAATCGACGGTCT
Consider B6, for which the binding result in the series with His-OsSUF4N is recorded as “binds”.

B7: Os09g31486 probe (dsDNA)
DNA 1: CCACCGAAATGACGGAAATGCCCCTGGCCG
DNA 2: CGGCCAGGGGCATTTCCGTCATTTCGGTGG
With B7, the binding result with His-OsSUF4N is given as “binds”.

B8: Os04g49660 probe (dsDNA)
DNA 1: AGGACTAATTCGGAAATCTCCCCTTCCCGT
DNA 2: ACGGGAAGGGGAGATTTCCGAATTAGTCCT
In the case of B8, the binding result in the series with His-OsSUF4N is reported as “binds”.

B9: Os12g21784 probe (dsDNA)
DNA 1: CTTTCTCTTCGGAAATATAAATATATACCC
DNA 2: GGGTATATATTTATATTTCCGAAGAGAAAG
Turning to B9, the binding result with His-OsSUF4N is “binds”.

B10: Hd3a-e (Hd3a-WT) (dsDNA)
DNA 1: ACAGTTAACTAACGGTACGGAAATGGTATAAA
DNA 2: TTTATACCATTTCCGTACCGTTAGTTAACTGT
Regarding B10, the binding result with His-AtSUF4 (full length) is “no binding”.

B11: Os06g06490 probe (dsDNA)
DNA 1: ATATTTTTTCGCGGAAATTCGGTCTTCACT
DNA 2: AGTGAAGACCGAATTTCCGCGAAAAAATAT
Regarding B11, in the series with His-OsSUF4N, the binding result is given as “binds”.
